{"source": "patent US20260015417A1", "about": "(MEDIMABBIO, published 2026)", "molecular_target": "T1, recombinant human TIGIT protein (Acrobiosystems) (human, UniProt Q495A1 22-141)", "T1 construct": "Bought recombinant protein; NP_776160.2; UniProt Q495A1-1", "T1 sequence": "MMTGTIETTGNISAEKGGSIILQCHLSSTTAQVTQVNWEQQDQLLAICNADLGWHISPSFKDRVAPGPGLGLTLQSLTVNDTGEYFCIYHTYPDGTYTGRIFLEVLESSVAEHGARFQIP", "test": "ELISA, plate coated with recombinant human TIGIT at 1 ug/ml, serial 1:3 dilutions from 61.097 nM, detection with anti-mouse/human IgG-HRP, OD 450 nm", "method": "An ELISA plate was coated with recombinant human TIGIT protein (Acrobiosystems, China) at a concentration of 1 μg/ml dissolved in PBS (Phosphate-Buffered Saline) and incubated overnight at 4° C. The plate was blocked with blocking buffer (3% (v/v) skim milk in PBS) for 1 hour, and serially diluted anti-TIGIT monoclonal antibody (7A6) and the fusion protein ([7A6]-[TL-2]-[IL-15]; denoted as ‘7A615TL-2’) (starting concentration: 61.097 nM; serial 1:3 dilutions) were added to the coated plate. After incubation, anti-mouse/human IgG-HRP antibody (Abcam: 1:10000 dilution) was added to each well. The plate was developed with TMB solution and stopped with 1N HCl. The OD value was read at 450 nm using the GloMax® Explorer Fully Loaded."}
{"binder": "anti-TIGIT monoclonal antibody 7A6 (7A6_VH3/Vk5) (antibody, human IgG1, kappa, V domains shown, also called parent antibody; TIGIT mAb) VH: QVQLQESGPGLVKPSQTLSLTCTVTGYSITSDYAWNWIRQPPGKGLEWMGYISYSGSARYNPSLKSRVTISRDTSKNQFSLKLSSVTAEDTATYYCARKGYPAYFAYWGQGTLVTVSS VL: DIQMTQSPSSLSASVGDRVSITCKASQDVSTAVAWYQQKPGQAPRLLIYSASYRYTGVPDRFSGSGSGTDFTLTISSLQPEDFATYYCQHHYSTPYTFGQGTKLEIKR", "values": [{"measurement": "EC50 (read off the curve)", "result": "~2", "unit": "nM"}]}
